Test: yeast display, Sf9 membrane polyspecificity reagent, FACS + sequencing; frameworks hold sequencing errors
Outline: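 Synthetic nanobody libraries on Saccharomyces cerevisiae BJ5465 were galactose-induced for 36–48 hours, stained 1 hour at 4 °C with 10% biotinylated, detergent-solubilized Sf9 membrane reagent and enriched on streptavidin microbeads. FACS then separated cells into low and high (top ~1%) gates by anti-HA (expression) and streptavidin (reagent binding) fluorescence. Genes were colony-PCR amplified, MiSeq 2 × 250 sequenced and CDR-length filtered. A clone's polyreactivity label is that of its gate of origin.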

Row | Sequence | polyreactivity (PSR sort gate)
1 | QVQLVESGGGLVHAGGSLRLSCAASGRTFNGYVMGWYRQAPGKERELVAAITNRDGSTYYADSVKGRFTISRDNAKNTVYLQMYSLKPEDSAVYYCAAPVWLWADRYDSWGQGTQVTVSS | low polyreactivity
2 | QVQLVESGGGLVHAGGSLRLSCAASGRTFYYNAKGWYRQAPGKESELVAAISSGDSTYYADSVKGRFTISRDNAKNTVSLQLNSLKPEDTAVYYCYADTGLGSLDFDKRDYWGQGTQVTVSS | low polyreactivity
3 | QVQLVESGGGLVHAGGSLRLSCAASGSIFAANAMGWYRQAPGKERELVAAISSSGDITYYADSVKGRFTISRDNAKNSVFLQMNSLKPEDTAVYYCAARRYPYHEDNYWGQGTQVTVSS | high polyreactivity
4 | QVQLVESGGGLVHAGGSLRLSCAASGSIFAGNAMGWYRQAPGNERELVAGISRSGGSTNYADSVKGRFTISRDNAKNTVYLQMIRLKPEDTAVYYFAASATPSGVGMDYWGQGTQVNVSS | low polyreactivity
5 | QVQLVESGGGLVHAGGSLRLSCAASGSIFFHNAMGWYRQAPGKERELVAAISGGGSTTYADSVKGRFTISRDNAKNTVYLQMNSLKPEDTAVYYCAKSYRYYALHYSPGWYNYWGQGTQVTVSS | high polyreactivity
6 | QVQLVESGGGLVHAGGSLRLSCAASGSIFLLYAMGWYRQAPGKERELVAAITSSGGSTNYADSVKGRFTISRDNAKNTVYLQMNSLKPEDTAVYYCATAPYAYTILGSRFDYWGQGTQVTVSS | low polyreactivity
7 | QVQLVESGGGLVHAGGSLRLSCAASGSIFQYNAMGWYRQAPWKERELVAAITSTGDTNYADSVKGRFTISRDNAKNTVYLQMNSLKPEDTAVYYCAADVYGTVRRVGWYYVGEGYDYWGQGTQVTVSS | low polyreactivity
8 | QVQLVESGGGLVHAGGSLRLSCAASGSIFRVYTMGWYRQAPGKERELVAAISRSGGRTYYADSVKGRFTISRDNAKNTVYLQMNSLKPEDTAVYYCATRPKVAYEYDYWGQGTQVTVSS | high polyreactivity
9 | QVQLVESGGGLVHAGGSLRLSCAASGSIFSAYAMGWYRQAPGKERELVAAISRSGGRTYYADSVKGRFTISRDNAKNTVYLQMNSLKPEDTAVYYCAAYFTYYSTLGRWYRYDYWGQGTQVTVSS | high polyreactivity
10 | QVQLVESGGGLVHAGGSLRLSCAASGSIFYRNVMGWYRQAPGKERELVAAISRSGGSTYYADSVKGRFTISRDNAKNTVYLQMNSLKPEDTAVYYCAVRYSPFYYWGQGTQVTVSS | high polyreactivity
11 | QVQLVESGGGLVHAGGSLRLSCAASGSTFGDNAMGWYRQAPGKERELVAAITSGTSTNYADSVKGRFTISRDNAKNTVYLQMNSLKPEDTAVYYCAAQYYGVAKQGLDEEDYWGQGTQVTVSS | low polyreactivity
12 | QVQLVESGGGLVHAGGSLRLSCAASGSTFKIYAMGLYRQAPGKERELVASIRGRGGSTYYADSVKGRFTISRDNAKNTVYLQMNSLKPEDTAVYYCNATYGHRYPACISYDYWGQGTQGTVSS | high polyreactivity
13 | QVQLVESGGGLVHAGGSLRLSCAASGSTFPGYAMGWYRQAPGKERELVAAISKRGGSTRYADSVKGRFTISRDNANNTVYLQMNSLKPEDTAVYYCAASYSYSGSGGGYWGQGTQVTVSS | high polyreactivity
14 | QVQLVESGGGLVHAGGSLRLSCAASGSTFRHNAMGWYRQAPGKERELVAAINRSGVSTHYADSVKGRFTISRDNAKNTVYLQMNSLKPEDTAVYYCAVDSYPKSLWYYGGVYSPLDYWGQGTQVTVSS | low polyreactivity
15 | QVQLVESGGGLVHAGGSLRLSCAASGSTFVEYVMGWYRQAPGKERELVASIDVGTTSTRYADSVKGRFTISRDNAKNTVYLQMNSLKPEDTAVYYCNADGYYSGYWTNYDYWGQGTQVTVSS | low polyreactivity
16 | QVQLVESGGGLVHAGGSLRLSCAASGSTLGSYAMGWYRQAPGKERELVARITTGGGTSYADSVKGRFTISRDNAKNTVYLQMNSLKPEDTAVYYCAATFIYGARTYGYWGQGTQVTVSS | high polyreactivity
17 | QVQLVESGGGLVHAGGSLRLSCADSGRIIGINAMGCYRQAPGKERELVAAINWSGGSTYYADSVKGRFTISRDNAKNTVYLQMNSLKPEDTAVYYCAAQKYKRVGYWGLGTQVTVSS | high polyreactivity
18 | QVQLVESGGGLVHAGGSLRLSCAPSRIFVYNAMGWYRQAPGKERELVATITSSGGITYYADSVKGRFTISRDNAKNTVYLQMNSLKPEDTAVYYCNKVRRYYYRTHNDFWGQGTQVTVSS | high polyreactivity
19 | QVQLVESGGGLVHAGGSLRLSCASTGFIYQPYAMGWYRQAPGKEMELVAAITSRGGRTYYADSVKGRFTISRDIANNTVYLQMNRLNPVDTAVYYCNADIYASEYYYWGQGTQVTVSS | low polyreactivity
20 | QVQLVESGGGLVHAGGSLRLSCDASGSIFDGYGMGWYRQAPGKERELVASITWNDGSTYYADSVKGRFTISRDNAKNTVYLQMNSLKPEDTAVYYCAADQWGYEYDYWGQGTQVTVSS | low polyreactivity
21 | QVQLVESGGGLVHAGGSRRLSCAASGNFFRYYVLGWYRQAPGTERECVAAITSSGGSKYYADSVKGRFTISRDNANNTVYLQMNSLKPEDTAVYYCAKDYWDPGWAEYDFWGQGTQVTVSS | low polyreactivity
22 | QVQLVESGGGLVHAGGTIEPYAMGWYRQAPGKERELVAPIRTSGGGTYYADSVKGRFTISRDNAKNTVYLQMYSLKPEDTAVYYCAAKSGPTLQRYYSYIFDYWGQGTQVTVSS | low polyreactivity
